Assay results from patent publication US20160137740A1.

Biological target: KO_CRD4+linker (human OX40 aa 147 to 214 replaced with the mouse counterparts) (human; mouse)
Assay: flow cytometry, transfected 293F cells, column KO_CRD4+linker

KO_CRD4+linker (human OX40 aa 147 to 214 replaced with the mouse counterparts) (human; mouse), sequence (chain, as listed by the source limits assumed, form in doubt): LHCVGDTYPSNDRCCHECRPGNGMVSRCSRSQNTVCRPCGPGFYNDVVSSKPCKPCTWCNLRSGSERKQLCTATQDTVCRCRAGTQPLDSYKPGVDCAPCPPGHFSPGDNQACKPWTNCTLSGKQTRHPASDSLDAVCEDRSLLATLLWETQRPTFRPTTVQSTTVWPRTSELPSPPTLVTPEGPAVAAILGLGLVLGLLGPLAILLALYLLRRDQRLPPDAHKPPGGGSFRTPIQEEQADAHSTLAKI

percent of cells in the Alexa Fluor 488 gate (number printed over the gate): 52.7
B1: 9B12 (antibody, mouse IgG1, V domains shown)
VH: EVQLQESGPSLVKPSQTLSLTCSVTGDSFTSGYWNWIRKFPGNRLEYMGYISYNGITYHNPSLKSRISITRDTSKNHYYLQLNSVTTEDTATYFCARYRYDYDGGHAMDYWGQGTLVTVSS
VL: DIQMTQTTSSLSASLGDRVTISCRASQDISNYLNWYQQKPDGTVKLLIYYTSKLHSGVPSRFSGSGSRTDYSLTITDLDQEDIATYFCQQGSALPWTFGQGTKVEIKR
